In patent US5128450A, “Nonglycosylated human interleukin-3 analog proteins” (priority 1989, dated 1992):

B1: huIL-3 (Ser^8): composition of huIL-3 (Ser^8) produced in E. coli, reported by Valent et al. (protein, UniProt P08700 20-152, looked up, variant P8S)
Interleukin-3: APMTQTTSLKTSWVNCSNMIDEIITHLKQPPLPLLDFNNLNGEDQDILMENNLRRPNLEAFNRAVKSLQNASAIESILKNLLPCLPLATAAPTRHPIHIKDGDWNEFRRKLTFYLKTLENAQAQQTTLSLAIF
B2: Met^3 rhuIL-3 (Pro^8 Asp^15 Asp^70): truncated, non-glycosylated IL-3 analog having an N-terminus at Met^3, expressed from pIXY290 (protein, UniProt P08700 20-152, looked up, variant del1-2 N15D N70D)
Interleukin-3: MTQTTPLKTSWVDCSNMIDEIITHLKQPPLPLLDFNNLNGEDQDILMENNLRRPNLEAFNRAVKSLQDASAIESILKNLLPCLPLATAAPTRHPIHIKDGDWNEFRRKLTFYLKTLENAQAQQTTLSLAIF

How the values were obtained:
rhesus monkeys = conditions: cited from earlier work
human bone marrow cells = test: Human bone marrow proliferation assay; format: cell-based
Experimental: Freshly isolated human bone marrow cells are preincubated for 2 hours at 37° C., 5% CO2, in tissue culture flasks containing 2×10^6 cells per mi prewarmed, pregassed serum-free RPMI1640 medium (Gibco, Chagrin Falls, OH, USA) containing 50 units/ml penicillin, 50 μg/ml streptomycin, and 300 μg/ml fresh L-glutamine (hereinafter "assay medium"). After preincubation, nonadherent cells are removed by pipetting the media gently over the surface of the flask. Nonadherent cells are collected by centrifugation at 1000 rpm for 10 minutes at 4° C., resuspended in a small volume of assay medium containing 10% fetal bovine serum (FBS), and counted using Trypan blue for viability and Turks stain for recovery of white cells. Cells are kept at about 4° C. in assay medium containing 10% FBS until added to assay plates.
50 μl assay medium are added to each well of a 96 well flat bottom tissue culture plate. 50 μl of sample diluted in assay medium are added to the first well of each row, and serial dilutions are made across each row in the usual manner. […] After incubation, cells are harvested onto glass fiber filters, washed, and tested for incorporated radioactivity using a scintillation counter. Units of huIL-3 activity are calculated by reference to the quantity of huIL-3 which induces 50% of maximal thymidine incorporation. […]

Molecule | intracellular histamine (IH) in WBC (rhesus monkeys; after IL-3 treatment until day 8-10) | white blood cell (WBC) increase (rhesus monkeys; by day 14, 11, 33, 100 μg/kg/day s.c. thrice daily) | plasma histamine (rhesus monkeys; rhesus monkey, in vivo) | skin side effects (skin biopsy) (rhesus monkeys; rhesus monkey, in vivo) | biological activity compared with production lots of Example 2 (human bone marrow cells)
B1 | rise continuously | 2-3 fold | rise in plasma histamine values | urticaria-like exanthem revealing infiltration of mast cells and lymphocytes into the dermis | –
B2 | – | – | – | – | comparable in biological activity to the rhuIL-3 production lots
